# Assay results published in the DeepSol protein solubility set.
# Assay: soluble on expression in E. coli; label from the status in PepcDB or PDB records
row,Sequence,soluble on expression in E. coli
1,MGSDKIHHHHHHMKTKLILVGGFLGVGKTTLLGEAARRLSQTGRKVGLITNDQASELVDTVYLEQTGTEVSEVSGSCFCCNFPGFMEAIDHVNAHKPADIIIAEPVGSCTDLSATILQPLKEKFADKLSVAPLSVLVDPRQLTDILDGRTAGLHPSAAYILRKQLEEADLIVINKTDLLTPLAVEILKKRTAEEWPLASVYAISAKTGEGLAAWLHEAQQRSGAGTHLAEVDYDTYAEGEAVLGWLNATIELQSQGADWDTLGRNLLNSLRSRFGSLNAAIGHVKLLIATDQGYVIGNITGAKDSLDIRESAGTGRKAQLTLNARVQMEPDLLEEIVKEEIAKVQADKITATIAVLKCLKPGRPNPTYRYGTIVG,not soluble
2,MGSDKIHHHHHHMSQRLQALYGLKWNPFSPELPLEALYVPPRVENFCWRIENALVREGGFAMIHGEPGTGKSVVMRVLAEKLERLTDLTVVSINHPQSNLADFYREMGDIFGLELRPHNRWGGFRSLRDRWMSHLQSTRRRPILLIDEAQEMSPGVLNELRLMASARFDSQPLLCVVLAGDTRLTDKLRRDELLPLGSRIRSRLGTEKASADDLLACLDHLLASAGAPQLMTPPLRHTLCEHALGNYRVLTTLANELLTTAAQRELSELDEKLYFEVFAPSTQSSRRTPARQPNGAR,not soluble
3,MGSDKIHHHHHHMSKLSNLITQYCPEGVEYKTLGECGKFYGGLTGKSKKDFEDGNSKFITYKNVYSNPALCLDVEDKVRIEPGERQRTLEYGDIVFTGSSETPDECGISSVVAEIPEENLYLNSFCFIFRFDDPSILLPDFAKHLFRSSELRYQIGKTASGVTRYNVSKKLMGKVSFPVPPLEVQREIVRVLDSFTLLTAELTAELTARKQQYEFYRDYLLNGNSDYDICNLGDVCDVVAGGTPSRKVSDYWEDGCIPWLGSTVCKNKKNVDEPTEFITELGLEKSSAKMMKKDTTLIALVGATIGKVAFTTFDVAINQNIAGVYPKDTSKINPSYIYYACTTLYPHFLNLTQGSKLAMANLTFVRGLKISVPPIDVQNHLVNVLDNFESITSDLSIGLPAEIEARKKQYEYYRDALLTYASTGKIIARQTEHN,not soluble
4,MFGYRSNVPKVRLTTDRLVVRLVHDRDAWRLADYYAENRHFLKPWEPVRDESHCYPSGWQARLGMINEFHKQGSAFYFGLFDPDEKEIIGVANFSNVVRGSFHACYLGYSIGQKWQGKGLMFEALTAAIRYMQRTQHIHRIMANYMPHNKRSGDLLARLGFEKEGYAKDYLLIDGQWRDHVLTALTTPDWTPGR,not soluble
5,MAHHHHHHMWWTAARRRLYYPNQIFLSKDNRRINNSWLPRRLLLVRHGESEANVNREVYSNTPDWKIPLTALGREQAYDCGKRLRNIIQGEKLYIYYSPYARTRQTVSEIRRSFDESQIQGEREDERLREQEMGNYQPLQDMDATWAARNAFGRLYYRFPFGESGADVGDRVSGFFDSLLRESIGLTVPNMNECVVQGAREGLGALDLGPWSTGVDNVPGSSCACSVSTSQGGPVASSTGSESAPPSWTPSFHQATTSSAGLRRTIRRTSPHRPLPLSDFGEAETRGVPPLNDHCASAGEEQNVLIIAHGLLIRLFIGRWFRVPMEVFETMCNPPNCAIIVLERDDRLGRLVMTDMSKSLFGSDPLLQMMRFDGREDTHWYREKFLGIVDPTKAAEEAVVEDDDENHYSMSNAHNSGVGAPAPPPRQRKPSTSTATRASPSTSASASGTSASSAESADVSASTAEHAALAARDRATQPKCPPPCMDCTPNRDYMTFSRRR,not soluble
6,MRGSHHHHHHTDPALRADYRKIIKEIGRGKNHARDLDRDTARGLYAHMLNGEVPDLELGGVLIALRIKGEGEAEMLGFYEAMQNHTIKLTPPAGKPMPIVIPSYNGARKQANLTPLLAILLHKLGFPVVVHGVSEDPTRVLTETIFELMGITPTLHGGQAQAKLDEHQPVFMPVGAFCPPLEKQLAMRWRMGVRNSAHTLAKLATPFAEGEALRLSSVSHPEYIGRVAKFFSDIGGRALLMHGTEGEVYANPQRCPQINLIDREGMRVLYEKQDTAGSELLPQAKDPETTAQWIERCLAGSEPIPESLKIQMACCLVATGEAATISDGLARVNQAFGLCGR,soluble
7,MIRRAKPLLGTLIEIAVESVVEASSQSALDEPAIQAAITAAFSRITQIGRLLSFHQQDSELNLLNRQPGQWITLSQDSLRVFKLAKWFGKASDNLFNCTIGGEMMSRGALPCYLGMPLLLQGDWQDIEIRGNQARLARPLIVTFDGIAKGYAVDMAVRELRRAGVSGGWVNAGGDLKVFGSASLDVLCRGSNGLSQKVTVRNMALASSRVSLQLSLGCPALLLPTGNVDMMSFDASNERVVSVQAPFAWRADALTKVAGYLSAEAAKDKIQQLGGQLVC,not soluble
8,MSLSIQRILFPTDFSDGARRAFPQAAHLADWHDAGLHILNVTGRHRHDHEETTANFPIATDTLTKWLRRPEKSVRGANWPDLEALPITQEQVESAEPAERILAYAEDEAIDLIVMGTHGRRGVDRMLFGSVTEEVVRKAPCPTLTVRADADVAPDQAVRRVLAPVDFSDASRSAVRHAKEIALTYGAEIDLLHVVEEPFYPPAYGLGETGFPTDKVIGSVEDELADLARSEVGYEHVMIEARTGEPSREILNYIDENEVDLTVIASHGRTGLDRMLIGSVAERVVRQSPTPVFVAKPDRAALVSSDAAEGHHHHHH,not soluble
9,MKKQKSFPMSAYEDLLGKITAPTITVENWEGILAFCDMINNDFEGSKTGIKSLRKRLNNRDPHVVLLAISVLDSCWANCEERFRKEVSSAQFINELKALCTSSQRQVAEKMRLTVQKWVDTECKTEQSLSLIVTLHKNLVADGYSFVVDDPKSKTKAIDAKFANDPNYVGSAQEEEAIAKAIAASLADAEKQEKAKKSTSTMYPSAKASSPAVQTNSNIPEKNVRALYDFEAAESNELSFVAGDIITITDESNPHWWTGRIGTQQGLFPSSFVTNQLDDLKSKETDSSQKAPEVVASINEAILVRCLQVLHECDPTGERQDPEDLAQLEAASYAQGNLIDAHLASIDRQSNSLAQIDVAIRDVLALYDDAIQKGGFQHQSQGMYQQPMQQYNYQQPPNRAYYPPTGPVQQQQPQQYPPQHYPAPGAQPQYACPPNSVPQPQQQQQQWPAPSSQPQQY,not soluble
10,MSLTANRDKFRPVYHHTPLYGWMNDANGLVYKDGEYHLYFQYNPYGSVWGNMHWGHSVSKDLVHWEHLDPAIARDTLGHIFSGSAIVDKHNSAGYGENTIVAFYTSHRNIPSGQSQVQSMAYSTDNGRTYTKYEQNPVLTPFDGLQNFRDPKVFWYEPEQKWIMIVSADKNMRFYSSANLKQWEYMSEFGEGFGPQPNQFECPDFIQLPVDGDRTRMKWVMIVNINPGFVYGGSGTMYFTGDFDGHQFVCDTKPEVVKWLDWGKDHYATVCFSNTGDRVIAVPWMSNWQYANYTPIQQFRSANALPRELSLYTGEDKQLYLSAAPVKETEHLRKDSKKLDDFTVNGEKRLETLFENNDGAFELELQLVSAGKEAGFELLNSLGEKVKIYLDASEGRVVMDRAESGIVDFGKKVKPHDLDTEESYARYKEVTVNYKNDFALGTWAPINTAKAHKIQVFVDNGSVELFVDGGRVAMTNLVFPNEPYNSLRFYSKGGEMKISNFTIYKLGLEGHHHHHH,soluble
11,MGSDKIHHHHHHMETIERHFRCNEGSAADYAAQLREVGTVMLPAYVAFDAHELAHIDALQARLPEEPVTAGDAGDTHDIYVRRIMVDRAGERPQLVNRPHSEPILALLTDARRTRFFGDMFGANAEYFIRRCQINRMLKDSFIGLHLDAASNPDYEFSVVIQLGREFDGGEFVVHPEGRLPNVFAPTYGTVIVTSCMHRHEVRSVRANERTSLVYFYARHNGVNRRAN,not soluble
12,MGSDKIHHHHHHMANTSSDWAGAPQNASADGEFVRDTNYIDDRIVADVPAGSEPIAQEDGTFHWPVEAGRYRLVAARACPWAHRTVITRRLLGLENVISLGLTGPTHDVRSWTFDLDPNHLDPVLQIPRLQDAYFNRFPDYPRGITVPALVEESSKKVVTNDYPSITIDFNLEWKQFHREGAPNLYPAELREEMAPVMKRIFTEVNNGVYRTGFAGSQEAHNEAYKRLWVALDWLEDRLSTRRYLMGDHITEADIRLYPTLVRFDAVYHGHFKCGRNKITEMPNLWGYLRDLFQTPGFGDTTDFTEIKQHYYITHAEINPTRIVPVGPDLSGFATPHGREKLGGSPFAEGVTLPGPIPAGEEVKNPEPFQK,not soluble
13,RGFQHGIRHNVEQFGMGTSAISFSTWRTSKEYGGYPKDRYIELTPADCDYLVKLNPDLIKGAAYYTNQWSYDVQYEDRTHSTPTKAVSGEYGNMVKTHLIEGRFLSTSDDAMKRKVIVLCEQTADVLFGESISPIGKYVNLSQIPFLVVGVCKGEQGQFSPNYIPFATYSGIFAKGFSLDCTLFMNCPSVRTEENVERLKVLLNRQLAFRKGYDPTDMEVPYVDAPVTDIKMMDKIFNGMD,not soluble
14,SNQKIASIEQLSNNEGIISALAFDQRGALKRMMAKHQTEEPTVAQIEQLKVLVAEELTQYASSILLDPEYGLPASDARNKDCGLLLAYEKTGYDVNAKGRLPDCLVEWSAKRLKEQGANAVKFLLYYDVDDAEEINIQKKAYIERIGSECVAEDIPFFLEVLTYDDNIPDNGSVEFAKVKPRKVNEAMKLFSEPRFNVDVLKVEVPVNMKYVEGFAEGEVVYTKEEAAQHFKDQDAATHLPYIYLSAGVSAELFQETLKFAHEAGAKFNGVLCGRATWSGAVQVYIEQGEDAAREWLRTTGFKNIDDLNKVLKDTATSWKQ,not soluble
15,MLILVSPAKTLDFEQPPLTQIHTRPDFLAQSQELIQVCQQLTPSDIATLMKVSDSIAGLNAARFGEWKPDYSIDNAKQAIFAFRGDVYTGFDADTLTAAQLERTQSQLRILSGLYGLLRPLDLILPYRLEMGTALTNQKGKNLYEFWGNTLTDAVNSAVAAQGDGIIINLASNEYFKAIKPKFLNGQLITPVFKDFKNGQYKVISFFAKRARGMMARYIIDQQVSSIDGLKAFEVDGYYYSEELSKPNEPTFLREAQ,soluble
16,MGSDKIHHHHHHVTYGDNVKPINDALLTEFPKEKRYLVYDKKFVKNPEAWSAEYALPYRRLRFIRLAYLLATSKHLFIDNYIGEYSVAPIRQGTKRIQLWHAAGTLKKFGLTSSRSLMVPKHVLRRFKRVYQRYGDFIVPGEACAKQFMAPHDLHRTVFKTLGVPRTDYWFNEQHQTVKKQLSDIYVKPKRRILLYAPTYREYNGMEGQTVRQLEQLTDQGWTILVKLHPTVRSMFTHQKAHVHFVTDEYSINDYLLITDVLVTDYSSIPFESCLLGVPTVLYTPDIDTYRQIPGIIDSYPDPLPVTCTDQFEIMLNWINSDVSLQESRMAMEQFKTIWYTEQPGQATRRIVDHYYRKVR,not soluble
17,MWLLQLMQQQHSIDMMKKQGLKLEAQDLYNPNGVSLKDAVGIFGGGCTGEIISPEGLILTNHHCGYSSIQQHSSVEHDYLTDGFWATSRDQELPTPGLKFTFIERIEDITDIVNAKIAAKEITESQSFTGAFLEGLAKELYEKSDLKDKKGIVPQALPFYAGNKFYLFYKKIYPDVRMVAAPPSSVGKFGGETDNWMWPRHTGDFSMFRIYADANGEPAEYSASNTPLKTKKHLSISIKGLKEGDYAMIMGFPGRTSRYLTVSEVKERMESTNEPRIRIRGARLAVLKEVMNASDKIRIQYANKYAGSSNYWKNSIGMNKAIIDNDVLGTKAEQEAKFAEYAKAQNNTEYANVVKKIDDLVAQTAPLNYQLTCLTEVFFGAIEFGNSMLTKTREALVDKNDSLIKVRLEGLKENFKSIHNKDYDHEVDRKVAKALLPLYAEMIPANQRPAIYKVIEQKYKGDYNKFVDDMYDKSIFANQANFDKFLKKPTVKAIDEDLALQYAQSKYDQYGNLLDQLKELDKELALLHKTYIRGLGEMKLPVPSYPDANFTIRLTYGNVKPYDPKDGVHYNYYTTTKGILEKENPEDREFVVPAKLKELIEKKDYGRYALPNGDMPVCFLSTNDITGGNSGSPVLNENGELIGCAFDGNWESLSGDINFDNNLQRCINLDIRYVLFILEKLGNCGHLINEMTIVE,not soluble
